This note sets out measurements from article PMC10516418 (2023).

Some targets named below: v3B_Δ18; v3B_Δ15; v3B_Δ9.
Holding throughout (test): BLI
(BLI is a label-free optical method that tracks binding on a fibre tip over time.)

B1: MPE8 antigen-binding fragment (Fab) (Fab, V domains shown)
VH: EVQLVESGGGLVKPGGSLRLSCAASGFTFSSYSMNWVRQAPGKGLEWVSSISASSSYSDYADSAKGRFTISRDNAKTSLFLQMNSLRAEDTAIYFCARARATGYSSITPYFDIWGQGTLVTVSS
VL: QSVVTQTPSVSGAPGQRVTISCTGSSSNIGAGYDVHWYQQLPGTAPKLLIYDNNNRPSGVPDRFSASKSGTSASLAITGLQAEDEADYYCQSYDRNLSGVFGTGTKVTVL
Regarding B1, the Kd (in general, the free concentration of one partner at which half of the binding sites on the other are occupied at equilibrium, for simple one-to-one binding) in the experiment with v3B_Δ18 was 690 nM; in the experiment with v3B_Δ15 it was 62 nM; in the experiment with v3B_Δ9, 87 nM.
